Measurements published in IntAct's records for PubMed 16630557.

B1: mRNA-decapping enzyme subunit 1 (Saccharomyces cerevisiae), Q12517 (parent)
chain: MTGAATAAENSATQLEFYRKALNFNVIGRYDPKIKQLLFHTPHASLYKWDFKKDEWNKLEYQGVLAIYLRDVSQNTNLLPVSPQEVDIFDSQNGSNNIQVNNGSDNSNRNSSGNGNSYKSNDSLTYNCGKTLSGKDIYNYGLIILNRINPDNFSMGIVPNSVVNKRKVFNAEEDTLNPLECMGVEVKDELVIIKNLKHEVYGIWIHTVSDRQNIYELIKYLLENEPKDSFA

Variants of: B1
Conditions: with erf3_yeast SUP35, P05453
Chain of erf3_yeast SUP35, P05453 (P05453 whole entry): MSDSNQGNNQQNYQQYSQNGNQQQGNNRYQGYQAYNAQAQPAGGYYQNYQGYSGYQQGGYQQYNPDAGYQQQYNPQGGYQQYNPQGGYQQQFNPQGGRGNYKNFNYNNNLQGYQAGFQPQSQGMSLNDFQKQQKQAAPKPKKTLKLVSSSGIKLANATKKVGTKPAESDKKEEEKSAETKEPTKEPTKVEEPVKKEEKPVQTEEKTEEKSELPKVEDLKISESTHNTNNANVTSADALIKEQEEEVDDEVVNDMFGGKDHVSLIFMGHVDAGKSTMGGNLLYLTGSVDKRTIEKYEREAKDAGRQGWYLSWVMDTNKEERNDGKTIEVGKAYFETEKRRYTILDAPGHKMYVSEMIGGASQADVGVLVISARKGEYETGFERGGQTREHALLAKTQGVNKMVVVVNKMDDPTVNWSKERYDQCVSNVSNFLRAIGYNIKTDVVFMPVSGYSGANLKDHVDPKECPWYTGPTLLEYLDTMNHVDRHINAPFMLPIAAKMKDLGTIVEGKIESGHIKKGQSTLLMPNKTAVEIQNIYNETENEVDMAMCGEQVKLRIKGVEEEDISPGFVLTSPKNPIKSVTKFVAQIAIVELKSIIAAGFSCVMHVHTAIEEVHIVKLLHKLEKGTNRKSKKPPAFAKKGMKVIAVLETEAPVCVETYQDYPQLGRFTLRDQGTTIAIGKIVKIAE

Variant	effect of a mutation on the interaction
S45P	decreasing interaction
L38P;S45P	decreasing interaction
